Substitutions are numbered along the chain they refer to.
Experiments:
[1] = tested on: FLT3 autophosphorylation in Molm14 cells (FLT3/ITD); assay: Inhibition of FLT3 autophosphorylation in Molm14 cells in presence of FL (immunoblot); type: cell-based; settings: for effect of FL on dose response curve for inhibition of FLT3 autophosphorylation: exogenous FL, in medium and plasma; for effect of addition of FL on inhibition at the highest doses used: medium and plasma
Method: (§1) Leukemia cells were washed in PBS, then lysed by re-suspending them in lysis buffer (20 mM Tris pH 7.4, 100 mM NaCl, 1% Igepal (Sigma, St. Louis, Mo.), 1 mM EDTA, 2 mM NaV04, plus Complete protease inhibitor (Roche)) for 30 minutes while rocking. The extract was clarified by centrifugation at 14,000 rpm and the supernatant was assayed for protein (Bio-Rad, Richmond, Calif.). A 50 μg aliquot was removed as whole-cell lysate for analysis of STAT5, and the remainder was used for immunoprecipitation with anti-FLT3 antibody. Anti-FLT3 antibody (SI8; Santa Cruz Biotechnology, Santa Cruz, Calif.) was added to the extract for overnight incubation, then protein A sepharose (Upstate Biotechnology, Lake Placid, N.Y.) was added for 2 additional hours. Separate SDS-PAGE (sodium dodecylsulfate polyacrylamide electrophoresis) gels for whole-cell lysate and immunoprecipitates were run in parallel, After transfer to Immobilon membranes (Millipore, Bedford, Mass.), immunoblotting was performed with antiphosphotyrosine antibody (4G10; Upstate Biotechnology, Lake Placid, N.Y.) to detect phosphorylated FLT3, and then stripped and re-probed with anti-FLT3 antibody to measure total FLT3. Proteins were visualized using chemiluminescence (ECL; GE Healthcare, Piscataway, N.J.), exposed on Kodak BioMax XAR Film, developed, and scanned using a BioRad GS800 densitometer.

FLT3 [2] = assay: Plasma inhibitory activity (PIA) assay for FLT3 with patient plasma on TF/ITD cells; type: cell-based, human; settings: for mean PIA value: AML15 trial
Method: as §1
Frozen plasma samples were thawed and clarified by centrifugation at 14,000 rpm for 2 minutes. All assays described herein were performed within 12 months of collection. For each time point, 2×10^6 TF/ITD were incubated with 1 ml plasma at 37° C. for 1 hour. The cells were washed twice with ice-cold PBS then lysed. After immunoblotting for phosphorylated FLT3 as described above, densitometric analysis was performed on the bands and the PIA for a given plasma sample was calculated by expressing the density of its corresponding band as a percentage of the density of the baseline band (which was arbitrarily set at 100%).

FLT3 [3] = settings: previous monotherapy trials; cited from earlier work
[4] = target: T1, FLT3/TKD mutant (D835, Aspartic acid to Tyrosine change, in full-length FLT3) (human) (UniProt P36888); assay: cell-based or functional assay
T1 sequence: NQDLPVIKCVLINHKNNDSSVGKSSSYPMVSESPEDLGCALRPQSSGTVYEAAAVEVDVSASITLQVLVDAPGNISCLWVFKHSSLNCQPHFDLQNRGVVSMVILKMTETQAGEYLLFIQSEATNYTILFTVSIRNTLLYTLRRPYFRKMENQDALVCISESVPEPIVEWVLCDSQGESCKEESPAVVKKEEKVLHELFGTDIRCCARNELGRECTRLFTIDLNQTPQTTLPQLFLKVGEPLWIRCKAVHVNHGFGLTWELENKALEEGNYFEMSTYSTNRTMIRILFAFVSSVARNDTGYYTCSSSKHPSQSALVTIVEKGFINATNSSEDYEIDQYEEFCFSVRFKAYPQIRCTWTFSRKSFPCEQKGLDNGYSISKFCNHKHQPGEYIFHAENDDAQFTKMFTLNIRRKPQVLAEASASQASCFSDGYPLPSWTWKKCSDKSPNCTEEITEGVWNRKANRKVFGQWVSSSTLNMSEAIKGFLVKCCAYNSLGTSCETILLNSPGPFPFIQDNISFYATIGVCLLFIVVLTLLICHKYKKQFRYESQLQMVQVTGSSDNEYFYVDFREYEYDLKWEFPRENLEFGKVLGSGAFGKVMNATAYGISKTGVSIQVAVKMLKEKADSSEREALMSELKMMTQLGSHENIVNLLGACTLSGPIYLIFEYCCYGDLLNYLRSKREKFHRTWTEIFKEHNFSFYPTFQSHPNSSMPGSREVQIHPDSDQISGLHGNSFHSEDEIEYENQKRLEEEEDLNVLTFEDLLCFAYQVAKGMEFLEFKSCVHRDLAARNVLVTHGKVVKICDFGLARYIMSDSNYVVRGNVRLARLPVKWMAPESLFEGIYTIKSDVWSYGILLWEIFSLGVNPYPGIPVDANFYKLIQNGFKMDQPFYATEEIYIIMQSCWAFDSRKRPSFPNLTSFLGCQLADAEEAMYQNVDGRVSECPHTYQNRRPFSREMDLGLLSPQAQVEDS

[5] = target: T2, wild-type FLT3 (full-length, expressed in FL-/- MEF cells) (human) (UniProt P36888); assay: cell-based or functional assay
T2 sequence: T1 sequence with Y809D

[6] = target: T3, FLT3/ITD mutant (addition of 6 amino acids, RTDFRE, after amino acid No. 596 of full-length FLT3) (human) (UniProt P36888); assay: cell-based or functional assay
T3 sequence: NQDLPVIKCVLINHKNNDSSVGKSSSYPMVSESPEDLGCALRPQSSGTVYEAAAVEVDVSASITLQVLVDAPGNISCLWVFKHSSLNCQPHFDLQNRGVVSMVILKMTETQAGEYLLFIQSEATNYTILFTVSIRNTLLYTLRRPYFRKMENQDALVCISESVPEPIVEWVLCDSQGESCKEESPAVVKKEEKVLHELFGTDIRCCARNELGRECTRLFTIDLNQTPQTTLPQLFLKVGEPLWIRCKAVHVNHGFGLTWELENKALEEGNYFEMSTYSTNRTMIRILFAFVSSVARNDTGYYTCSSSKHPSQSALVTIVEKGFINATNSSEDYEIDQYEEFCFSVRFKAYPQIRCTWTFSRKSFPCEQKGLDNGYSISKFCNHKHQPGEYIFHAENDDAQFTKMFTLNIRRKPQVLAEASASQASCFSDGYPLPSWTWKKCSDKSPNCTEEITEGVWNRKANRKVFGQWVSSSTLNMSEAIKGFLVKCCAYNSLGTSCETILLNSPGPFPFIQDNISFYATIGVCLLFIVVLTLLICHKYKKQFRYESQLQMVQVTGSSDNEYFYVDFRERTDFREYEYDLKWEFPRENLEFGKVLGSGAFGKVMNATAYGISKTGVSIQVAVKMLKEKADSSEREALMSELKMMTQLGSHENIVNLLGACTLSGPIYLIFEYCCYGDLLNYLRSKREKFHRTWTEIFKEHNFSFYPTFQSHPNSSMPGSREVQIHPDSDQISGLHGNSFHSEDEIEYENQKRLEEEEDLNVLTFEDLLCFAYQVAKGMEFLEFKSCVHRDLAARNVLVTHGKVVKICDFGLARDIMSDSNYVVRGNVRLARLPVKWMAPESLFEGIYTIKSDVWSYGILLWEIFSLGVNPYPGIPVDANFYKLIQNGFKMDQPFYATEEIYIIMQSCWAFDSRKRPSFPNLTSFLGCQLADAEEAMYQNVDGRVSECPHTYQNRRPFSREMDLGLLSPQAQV

With `O=C(c1ccc(/C=C/c2n[nH]c3ccccc23)cc1)N1CCNCC1` [KW-2449] the “effect of FL on dose response curve for inhibition of FLT3 autophosphorylation” value [1] was “upward shift in the dose response curves” and the “effect of addition of FL on inhibition at the highest doses used” value [1] was “loss of complete inhibition”.

In the case of `CNC(=O)c1cc(Oc2ccc(NC(=O)Nc3ccc(Cl)c(C(F)(F)F)c3)cc2)ccn1` [sorafenib, Sorafenib], the “effect of FL on dose response curve for inhibition of FLT3 autophosphorylation” value [1] is reported as “upward shift in the dose response curves” and the “effect of addition of FL on inhibition at the highest doses used” value [1] is reported as “loss of complete inhibition”.

In the case of `C[C@]12O[C@H](C[C@]1(O)CO)n1c3ccccc3c3c4c(c5c6ccccc6n2c5c31)CNC4=O` [lestaurtinib, Lestaurtinib], the “FLT3 autophosphorylation remaining with FL” value ([1]; 10 μM in plasma, 3 ng/mL FL) is reported as “significant residual FLT3 autophosphorylation”, the “effect of FL on dose response curve for inhibition of FLT3 autophosphorylation” value [1] is reported as “upward shift in the dose response curve” and the “samples below 15% of baseline FLT3 activity” value (FLT3 [2]; AML15 trial (newly diagnosed AML), Day 15 trough) is reported as “all 18”. The “mean PIA value” (FLT3 [2]; course 1, 18 samples) was 3 % of baseline, the “mean PIA value” (FLT3 [2]; courses 2 through 4, 18 samples) was 6.8% and the “samples achieving target level of inhibition (FLT3 below 15% of baseline)” value (FLT3 [2]; Cephalon 204 trial (relapsed AML), Day 15 trough, 78 samples) was 62%. For the same molecule, the “trough levels in vivo sufficient to induce FLT3 inhibition to 15% of baseline” value (FLT3 [3]) was 5 µM.

B1: secreted form of FL expressed from a lentiviral vector (coding sequence from pUMVC3-hFLex plasmid) (ligand)
chain: TQDCSFQHSPISSDFAVKIRELSDYLLQDYPVTVASNLQDEELCGGLWRLVLAQRWMERLKTVAGSKMQGLLERVNTEIHFVTKCAFQPPPSCLRFVQTNISRLLQETSEQLVALKPWITRQNFSRCLELQCQPDSSTLPPPWSPRPLEATAPTAP
For B1, the FLT3 phosphorylation in FL-/- MEF-TKD cells stably expressing FL, no exogenous FL [4] was > 3 fold, the FLT3 phosphorylation in FL-/- MEF-FLT3 cells stably expressing FL, no exogenous FL [5] was > 3 fold and the FLT3 phosphorylation in FL-/- MEF-ITD cells stably expressing FL, no exogenous FL [6] was > 3 fold.

B2: Recombinant human FL (FLT3 ligand), PeproTech (ligand)
chain: TQDCSFQHSPISSDFAVKIRELSDYLLQDYPVTVASNLQDEELCGGLWRLVLAQRWMERLKTVAGSKMQGLLERVNTEIHFVTKCAFQPPPSCLRFVQTNISRLLQETSEQLVALKPWITRQNFSRCLELQCQPDSSTLPPPWSPRPLEATAPTA
With B2 the AKT phosphorylation in BaF3/TKD cells after FL stimulation [4] was 2.2 fold, the FLT3 phosphorylation (anti-FLT3 IP, 4G10 immunoblot, densitometry) in FL-/- MEF-TKD cells, FL 100 ng/mL 15 min [4] was > 4 fold and the FLT3 phosphorylation in TF1/TKD cells, exogenous FL 15 min [4] was > 2 fold. The STAT5 phosphorylation in TF1/TKD cells after FL stimulation [4] was 1.8 fold, the apoptotic population (Annexin V/7AAD, FACS) of TF1/TKD cells, 48 h serum-free, with FL [4] was 31.6% and the apoptotic population (Annexin V/7AAD, FACS) of TF1/TKD cells, 48 h serum-free, without FL [4] was 40.2%. For the same molecule, the FLT3 phosphorylation (anti-FLT3 IP, 4G10 immunoblot, densitometry) in FL-/- MEF-FLT3 cells, FL 100 ng/mL 15 min [5] was > 4 fold, the AKT phosphorylation in BaF3/ITD cells after FL stimulation [6] was 1.3 fold and the FLT3 phosphorylation (anti-FLT3 IP, 4G10 immunoblot, densitometry) in FL-/- MEF-ITD cells, FL 100 ng/mL 15 min [6] was > 4 fold. The FLT3 phosphorylation in TF1/ITD cells, exogenous FL 15 min [6] was > 2 fold, the STAT5 phosphorylation in TF1/ITD cells after FL stimulation [6] was 1.8 fold and the apoptotic population (Annexin V/7AAD, FACS) of TF1/ITD cells, 48 h serum-free, with FL [6] was 49.5%. For the same molecule, the apoptotic population (Annexin V/7AAD, FACS) of TF1/ITD cells, 48 h serum-free, without FL [6] was 61.3%.

Reference: patent US20130156764A1, “NEUTRALIZATION OF FLT3 LIGAND AS A LEUKEMIA THERAPY” (The Johns Hopkins University, priority 2010, published 2013)
